In US20240269276A1 (HARBOUR BIOMED SHANGHAI, published 2024):
Residue numbers refer to the chain shown, from its start. In names and notes the source's numbering stands. Like-named read-outs stand apart in the source and are kept apart here. One block for each binder: values may come before it.

Assays:
[1] = target: T1, cynomolgus monkey PD-L1 on CHO-K1 cells overexpressing cynomolgus monkey PD-L1 (cynomolgus monkey, UniProt G7PSE7 19-290); experiment: flow cytometry on CHO-K1 cells overexpressing cynomolgus monkey PD-L1 (CHO-K1/cynoPD-L1)
T1 construct: also called CHO-K1/cynoPD-L1; GenScript M00573
Protocol: (§1) In the example, in order to study the in vitro binding activity of the PD-L1 antigen-binding protein to human/cynomolgus monkey PD-L1, cell-level binding experiments were performed using CHO-K1 cell strains overexpressing human PD-L1 (CHO-K1/hPD-L1, GenScript, M00543) or CHO-K1 cell strains overexpressing cynomolgus monkey PD-L1 (CHO-K1/cynoPD-L1, GenScript, M00573). Briefly, the PD-L1 cells were digested and resuspended in an F-12K complete medium, and the cell density was adjusted to 1×10⁶ cells/mL. The cells were seeded in a 96-well V-bottom plate (Corning, 3894) at 100 μL/well, followed by the addition of the test antigen-binding proteins serially diluted 5-fold with concentrations that were twice the final concentrations at 100 μL/well. The mixtures were well mixed. The highest final concentration of the antigen-binding proteins was 100 nM. A total of 8 concentrations were set. An isotype antibody hIgG1 iso was used as a control. The cells were incubated away from light at 4° C. for 1 h. Thereafter, the cells in each well were rinsed twice with 100 μL of pre-cooled PBS, and centrifuged at 500 g at 4° C. for 5 min, and then the supernatant was discarded. Then 100 μL of a fluorescent secondary antibody (goat anti-human IgG (H+L) secondary antibody, Alexa Fluor 488 conjugate, Invitrogen, A11013, diluted at the ratio of 1:1000) was added to each well. The plate was incubated away from light at 4° C. for 30 min. The cells in each well were then rinsed twice with 200 μL of pre-cooled PBS and centrifuged at 500 g at 4° C. for 5 min, and then the supernatant was discarded. Finally, a pre-cooled PBS was added at 200 μL/well to resuspend the cells. Fluorescence signal values were read using a BD FACS CANTOII. Fluorescence signal values were read using a flow cytometer BD FACS CANTOII or FACS ACEA, and the data were processed and analyzed using FlowJo v10 (FlowJo, LLC) software. The data were processed and analyzed by plotting using GraphPad Prism 8 software, and binding curves, EC50 values and other parameters were acquired through four-parameter nonlinear fitting.

[2] = target: T2, human PD-L1 on CHO-K1 cells overexpressing human PD-L1 (human, UniProt Q9NZQ7 19-290); experiment: flow cytometry on CHO-K1 cells overexpressing human PD-L1 (CHO-K1/hPD-L1)
T2 construct: whole, on cells; also called CHO-K1/hPD-L1; CHO-K1-hPD-L1
Protocol: as §1

[3] = target: T2, human PD-L1 on CHO-K1 cells …; experiment: as above; remark: listed apart in the source
Protocol: as §1

[4] = target: T1, cynomolgus monkey PD-L1 on CHO-K1 cells …; experiment: flow cytometry on CHO-K1 cells overexpressing cynomolgus monkey PD-L1 (CHO-K1/cynoPD-L1); remark: listed apart in the source
Protocol: as §1

[5] = target: T3, human PD-L1 protein with histidine tag (ACROBiosystems #PD-1-H5258) (human, UniProt Q9NZQ7 19-238); experiment: BLI (Octet Red96e); His-tagged human PD-L1 captured on HIS1K sensor, antibody at 60 nM; 1:1 fit
T3 construct: Bought protein; also called His PD-L1; human PD-L1 proteins; not shown: histidine tag
Protocol: In this example, affinity determination was performed on the affinity-matured mutants of PR002082 using an Octet Red96e instrument. […] The binding kinetics between the antigen and the antibody was analyzed by the biolayer interferometry (BLI) technique using an Octet molecular interaction analyzer (ForteBio, model: Octet Red96e).
When the affinity of the antigen for the antibody was determined, the rotation speed of the sensor was set at 1000 rpm/min. The 2 HIS1K sensors placed in a column were first equilibrated for 10 min in test buffer, then His PD-L1 was captured with the HIS1K sensor at a capture height of 0.9-1.1 nm, then the HIS1K sensor was equilibrated for 2 min in the test buffer, then the HIS1K sensor was bound to the antigen-binding protein (60 nM and 0 nM) for 3 min, and finally the mixture was dissociated for 15 min. The HIS1K sensor was immersed in a 10 mM glycine solution (pH 1.5) for regeneration to elute the proteins bound to the sensor.
When data analysis was performed using Octet Data Analysis software (Fortebio, version 11.0), the reference signals were subtracted by a single reference mode (reference well), the data were fitted by a “1:1 Local/full fitting” method, and the kinetic parameters of the binding of the antigen to the antibody were calculated to obtain Kₒₙ (1/Ms) values, Kdis (1/s) values and KD (M) values.

[6] = target: T2, human PD-L1 on CHO-K1 cells …; experiment: flow cytometry on CHO-K1 cells overexpressing human PD-L1 (CHO-K1/hPD-L1) [continued) D]
Protocol: as §1

[7] = target: T2, human PD-L1 on CHO-K1 cells …; experiment: flow cytometry on CHO-K1 cells overexpressing human PD-L1 (CHO-K1/hPD-L1) [continued) F]
Protocol: as §1

[8] = target: T2, human PD-L1 on CHO-K1 cells …; experiment: flow cytometry on CHO-K1 cells overexpressing human PD-L1 (CHO-K1/hPD-L1) [continued) E]
Protocol: as §1

[9] = target: T4, human CD73 on CHO-K1 cells overexpressing human CD73 (human, UniProt P21589 27-549); experiment: flow cytometry on CHO-K1 cells overexpressing human CD73 (CHO-K1-hCD73)
T4 construct: whole, on cells; also called CHO-K1-hCD73
T4 sequence (looked up): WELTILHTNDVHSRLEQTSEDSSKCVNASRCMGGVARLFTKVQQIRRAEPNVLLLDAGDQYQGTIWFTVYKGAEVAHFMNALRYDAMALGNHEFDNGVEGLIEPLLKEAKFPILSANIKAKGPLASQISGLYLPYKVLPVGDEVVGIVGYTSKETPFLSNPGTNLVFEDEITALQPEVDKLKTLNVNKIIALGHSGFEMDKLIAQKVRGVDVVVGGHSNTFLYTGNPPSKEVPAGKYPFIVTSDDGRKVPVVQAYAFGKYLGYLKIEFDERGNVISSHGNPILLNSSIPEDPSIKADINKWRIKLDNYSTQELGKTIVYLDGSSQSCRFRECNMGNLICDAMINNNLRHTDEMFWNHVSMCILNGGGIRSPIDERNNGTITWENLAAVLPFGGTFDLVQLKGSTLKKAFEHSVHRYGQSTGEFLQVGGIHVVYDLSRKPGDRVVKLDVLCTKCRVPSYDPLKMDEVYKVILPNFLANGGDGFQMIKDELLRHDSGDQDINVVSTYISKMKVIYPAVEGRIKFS
Protocol: In order to investigate the binding activity of the CD73×PD-L1 bispecific antibody to human CD73 and PD-L1, the binding experiment at the cellular level was performed using CHO-K1 cell strains overexpressing human CD73 or PD-L1 (CHO-K1-hCD73 or CHO-K1-hPD-L1). Briefly, the CHO-K1-hCD73 and CHO-K1-hPD-L1 cells were digested and resuspended in an F-12K complete medium, and the cell density was adjusted to 1×10⁶ cells/mL. The cells were seeded in a 96-well V-bottom plate (Corning, #3894) at 100 μL/well, followed by the addition at 100 μL/well and centrifugation at 500 g at 4° C. for 5 min, and then the supernatant was discarded. Antibodies were 3-fold diluted to a maximum final concentration of 50 nM, and a total of 8 concentrations were set. 100 μL of the diluted antibodies was added to the cells, and the cells were incubated away from light at 4° C for 1 h. Thereafter, the cells in each well were rinsed twice with 100 μL of pre-cooled PBS, and centrifuged at 500 g at 4° C. for 5 min, and then the supernatant was discarded. Then 100 μL of a fluorescent secondary antibody (goat anti-human IgG (H+L) secondary antibody, Alexa Fluor® 488 conjugate, Invitrogen, #A11013, diluted at the ratio of 1:1000) was added to each well. The plate was incubated away from light at 4° C. for 30 min. The cells in each well were then rinsed twice with 200 μL of pre-cooled PBS and centrifuged at 500 g at 4° C. for 5 min, and then the supernatant was discarded. Finally, the cells in each well were resuspended in 200 μL of pre-cooled PBS, and the fluorescence signal values were read using a BD FACS CANTOII.

T3 sequence (Q9NZQ7 19-238 limits assumed): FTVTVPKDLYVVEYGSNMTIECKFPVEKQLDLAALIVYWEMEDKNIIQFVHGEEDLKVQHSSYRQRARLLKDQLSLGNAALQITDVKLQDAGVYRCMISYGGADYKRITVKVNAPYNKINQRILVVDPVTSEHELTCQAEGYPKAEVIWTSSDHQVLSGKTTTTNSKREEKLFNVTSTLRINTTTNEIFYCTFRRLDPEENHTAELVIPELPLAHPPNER
T1 sequence (G7PSE7 entry or part of it limits assumed): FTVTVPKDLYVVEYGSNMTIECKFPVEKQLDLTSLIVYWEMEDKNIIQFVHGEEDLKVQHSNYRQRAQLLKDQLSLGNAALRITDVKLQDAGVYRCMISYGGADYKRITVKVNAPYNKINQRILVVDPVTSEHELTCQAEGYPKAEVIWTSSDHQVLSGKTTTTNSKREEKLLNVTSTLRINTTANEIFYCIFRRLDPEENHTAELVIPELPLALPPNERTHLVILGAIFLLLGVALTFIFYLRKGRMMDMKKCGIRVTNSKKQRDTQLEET
T2 sequence (Q9NZQ7 19-290): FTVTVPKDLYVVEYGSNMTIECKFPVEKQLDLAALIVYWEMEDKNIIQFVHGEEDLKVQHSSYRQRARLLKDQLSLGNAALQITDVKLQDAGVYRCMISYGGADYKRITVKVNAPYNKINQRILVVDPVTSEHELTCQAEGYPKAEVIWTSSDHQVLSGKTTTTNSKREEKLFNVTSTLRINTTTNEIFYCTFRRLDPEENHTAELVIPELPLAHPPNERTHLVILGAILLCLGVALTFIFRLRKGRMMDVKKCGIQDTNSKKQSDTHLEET

B1: PR000960 (antibody, human IgG1, V domains shown)
VH: QVQLVESGGGVVQPGMSLRLSCAASGFNFSNYGMYWVRQAPGKGQEWVAIIWYDGTKKHYADSVKGRFTISRDNSKNTLYLEMNSLRVEDTAVYYCAKNRAIFGVVPDASDIRGQGTMVTVSS
notes: Heavy-chain-only antibody (HCAb): human VH fused to human IgG1 Fc; no light chain; also called anti-PD-L1 HCAb antibody
EC50 [1]: 0.421 nM | Maximum MFI [1]: 8440 MFI | EC50 [2]: 3 nM | Maximum MFI [2]: 3080 MFI | EC50 [3]: 0.79 nM | Maximum MFI [3]: 23700 MFI

B2: PR005875 (antibody, human IgG1, V domains shown)
VH: B1 VH with N28T, N31S, I50S, W52R, D54T, K57E, I102L, V106I
notes: The HC entry is used
EC50 [4]: 0.774 nM | Maximum MFI [4]: 11500 MFI | Kd [5]: 1.04 nM | koff [5]: 0.000179 s⁻¹ | kon [5]: 172000 M⁻¹ s⁻¹ | EC50 [6]: 0.974 nM | Maximum MFI [6]: 372000 MFI

B5: PR001061 (antibody, human IgG1, V domains shown)
VH: B1 VH with Q1E, V5L, M16R, N31S, T56S, K57R, V88A, V93M
notes: as for B1
EC50 [1]: 0.4 nM | Maximum MFI [1]: 8840 MFI | EC50 [2]: 2.31 nM | Maximum MFI [2]: 3090 MFI

B7: PR005878 (antibody, human IgG1, V domains shown)
VH: B1 VH with N28T, N31S, I50S, W52R, D54T, K57E, I102L, V106I, A109D
notes: The HC entry is used
EC50 [4]: 0.894 nM | Maximum MFI [4]: 11700 MFI | Kd [5]: 0.671 nM | koff [5]: 0.000121 s⁻¹ | kon [5]: 180000 M⁻¹ s⁻¹ | EC50 [7]: 1.08 nM | Maximum MFI [7]: 419000 MFI | EC50 [6]: 0.944 nM | Maximum MFI [6]: 379000 MFI

B9: PR006246 (antibody, human IgG1, V domains shown)
VH: B1 VH with N28D, N31S, I50S, W52R, D54T, K57E, V106I, A109D
notes: The HC entry is used
EC50 [4]: 0.736 nM | Maximum MFI [4]: 11600 MFI | Kd [5]: 0.546 nM | koff [5]: 0.000164 s⁻¹ | kon [5]: 301000 M⁻¹ s⁻¹ | EC50 [7]: 0.764 nM | Maximum MFI [7]: 396000 MFI

B12: PR001408 (antibody, human IgG1, kappa, L234A L235A, V domains shown)
VH: QVQLVESGGGVVQPGRSLRLSCAASGFTFYSYGMHWVRQTPGKGLEWVALIWYDGSNNYYADSVKGRFTISRDNSKNTLYLQMNSLRAEDTAVYYCATERSSSFYYYYGMDVWGQGTTVTVSS
VL: DIQLTQSPSFLSTSVGDRVTITCRASQGISSYLAWYQQKPGKAPKLLIYAASTLQSGVPSRFSGSGSGTEFTLTISSLQPEDFATYYCQQLNSYPYTFGQGTELEIKR
notes: Anti-CD73 IgG (human IgG1 constant region, human Ig kappa), PTM removed; also called anti-CD73 antibody PR001408; anti-CD73 H2L2 antibody
EC50 [9]: 0.342 nM

Continued, values first:

EC50 [4]: 0.733 nM | Maximum MFI [4]: 11800 MFI | Kd [5]: 0.861 nM | koff [5]: 0.000187 s⁻¹ | kon [5]: 218000 M⁻¹ s⁻¹ | EC50 [6]: 0.787 nM | Maximum MFI [6]: 385000 MFI
B3: PR005872 (antibody, human IgG1, V domains shown)
VH: B1 VH with N28T, N31S, I50S, W52R, D54T, K57E, V106I, A109D
notes: The HC entry is used

EC50 [1]: 0.376 nM | EC50 [3]: 0.83 nM | Maximum MFI [3]: 24600 MFI
B4: PR002079 (antibody, human IgG1, V domains shown)
VH: B1 VH with N28T
notes: HCAb; also called PTM variant of PR000960 (N28T)

EC50 [1]: 0.7 nM | Maximum MFI [1]: 8780 MFI | EC50 [2]: 2.67 nM | Maximum MFI [2]: 3000 MFI
B6: PR001065 (antibody, human IgG1, V domains shown)
VH: B1 VH with Q1E, M16R, N31S
notes: as for B1

EC50 [1]: 0.4 nM | Maximum MFI [1]: 8480 MFI | EC50 [2]: 3.33 nM
B8: PR001058 (antibody, human IgG1, V domains shown)
VH: B1 VH with Q1E, M16R, N28T, N31S
notes: as for B1

EC50 [4]: 0.717 nM | Maximum MFI [4]: 11500 MFI | Kd [5]: 0.634 nM | koff [5]: 0.000115 s⁻¹ | kon [5]: 182000 M⁻¹ s⁻¹ | EC50 [7]: 0.606 nM | Maximum MFI [7]: 404000 MFI
B10: PR006248 (antibody, human IgG1, V domains shown)
VH: B1 VH with N28D, N31S, I50S, W52R, D54T, K57E, I102L, V106I, A109D
notes: The HC entry is used

EC50 [4]: 1.19 nM | Maximum MFI [4]: 11700 MFI | Kd [5]: 1.94 nM | koff [5]: 0.000227 s⁻¹ | kon [5]: 117000 M⁻¹ s⁻¹ | EC50 [8]: 0.914 nM | Maximum MFI [8]: 363000 MFI
B11: PR005263 (antibody, human IgG1, V domains shown)
VH: B1 VH with N28T, N31S, I50S, W52R, D54T, K57E
notes: The HC entry is used

EC50 [9]: 1.1 nM
B13: PR003836 (antibody, human IgG1, kappa, L234A L235A, V domains shown)
VH: QVQLVESGGGVVQPGRSLRLSCAASGFTFSSYDMHWVRQAPGKGLEWVASTWYDASKKYYADSVKGRFTISRDNSKNTLYLQMNSLRAEDTAVYYCAKGGDLLTGPNAFDIWGQGTMVTVSS
VL: DIQMTQSPSTLSASVGDRVTITCRASQSISSWLAWYQQKPGKAPKLLIYKASSLESGVPSRFSGSGSGTEFTLTISSLQPDDFATYYCQQYDNYENTFGQGTKLEIKR
notes: Anti-CD73 IgG (human IgG1 constant region, human Ig kappa), PTM removed; also called anti-CD73 antibody PR003836; anti-CD73 H2L2 antibody
